Measurements taken from patent publication US10155985B2, “Evaluation of eosinophilic esophagitis” (CHILDREN'S HOSPITAL MEDICAL CENTER, priority 2004, dated 2018).

B1: SEQ_ID_#95 (nucleic acid, listed as Homo sapiens)
DNA: TTTTTTTTTTTTTTTTGTAATAAGAAAAAATTTTAGTAAAAGAAAATTCTCACAAAGTTTTTAGTAAATGAGATTATGTTCATGAATGTGTTTGGTAAACTGTAACTCCACAGGGCAGCTCCAAGTCATGAGTGTGCAGTTGGGCTCAAACCGTACAGAAGTCATTTCCAGGATGTTATCCTTACTCTTCTAGGAGCCCACATCGCCCAGATGAGGAAGGCCACCGCTGCCGCCAACGCCGACTACCGTGAGCAGCTTCCTGCTCCCCTGTCGTCGCCTCTGCGGTCGGGGCACTTTCCCCAAAGCGCT
B2: SEQ_ID_#978 (nucleic acid, listed as Homo sapiens)
DNA: GTATATGTTAAAAAAAGAGAAGGTCGCATTATGGACAGACTTCGTGAATGGGAATTTGCTTAGAATTGTGAGTAGTTCTGAATTAGAAAAGTATGTGAAGGAAAGGCAGCTGTAAACGTATTGTGCCCTGGAGAGTTGTACACATGTTGAAATGTAATCTGGGCTTACCTGATCCATTTGGAGTGGATGTCACTGCCGAGTCTGTTCTCACATGGAACCATGTGTGTGGGGTTGCCAGCCTCACAGATACAATCAATCCTATTCCCCTCTGACATAAGGAACTCCTCTGGAGTGGCAGAGTCTTATCACAGAAGGCAGCCACCATTTCACCAAAACAAAAGTTCACGGCATTCAATTCCTTTTTCCTTTAGCTATTTATATATGCAGTACTCTCAGTCATATGCAGAAATACTTTTTTTTTTTAATTAATAGTTACAGGCTTGTTGGTCCAGTGGGATTTGGGTAGGGGGAGAAAGATACCTTCTAAAATGGATCAATAGAACCAAAATAATACAGCATGTTCTATAACCACAAGGAAATCAAATGATCCTGTCATGATTCCAGTTAGTCATAACTATGTTAGCAGTGCTAAATGCATTTTAGAAATGGTGACTTCTGTGGTTTTCCTAGCATTTGTCTCTAACAAATGGTGAAATAATTACTCATGGCCCTCTCTGCCATTGTCTTTCATTTTTTCACAGTGAAATTAGACCCCTTTACTTCACCATTCTGCCACTGCAAATTAAGTATAAAGAAAATAGCAAGAGTGTCCACACCAGTAGACAGTAAGCTTCTCTACCTGTAAGTGATGAAATCATAGCTAATGCACTTGCCATGGAGTTTTCAAGATGATTGGTGTCAGACAGTTTTCACTTTGTTTAAAAAGTGTTGGTGGCCTTTTGTGGTGGTGTTACAATCCTCTGGGGGCTTAGGAGGATGTTGATGCAACTTTTAGAAGCTTTTAATTTCAAAAACAACTCAAAAATCTGAAGGACAGTCATAGCTGCCACTCAGCCCCAGTTAGTCAAACCCCAGTGACCTTTGCCCCTGGTTGCCAAGGGCTTTGCAACATCAAGCAGGGAAATAAGGATCTGTCTGTTTAGTGGATACCGTGTATCCTTTAATAGACCAGGTAACAGTTCGTGTTAGTTTAGACTATTGTTTTGTACTGTACTTTCTTGGGTGGCAGAGGAAAGAAAAGTAAAACATT
B3: SERPINB1 (nucleic acid, listed as Homo sapiens)
DNA: GCTCGGAGCCCGGAGCGTGCCTCGGCGGCCTGTCGGTTTTCACCATGGAGCAGCTGAGCTCAGCAAACACCCGCTTCGCCTTGGACCTGTTCCTGGCGTTGAGTGAGAACAATCCGGCTGGAAACATCTTCATCTCTCCCTTCAGCATTTCATCTGCTATGGCCATGGTTTTTCTGGGGACCAGAGGTAACACGGCAGCACAGCTGTCCAAGACTTTCCATTTCAACACGGTTGAAGAGGTTCATTCAAGATTCCAGAGTCTGAATGCTGATATCAACAAACGTGGAGCGTCTTATATTCTGAAACTTGCTAATAGATTATATGGAGAGAAAACTTACAATTTCCTTCCTGAGTTCTTGGTTTCGACTCAGAAAACATATGGTGCTGACCTGGCCAGTGTGGATTTTCAGCATGCCTCTGAAGATGCAAGGAAGACCATAAACCAGTGGGTCAAAGGACAGACAGAAGGAAAAATTCCGGAACTGTTGGCTTCGGGCATGGTTGATAACATGACCAAACTTGTGCTAGTAAATGCCATCTATTTCAAGGGAAACTGGAAGGATAAATTCATGAAAGAAGCCACGACGAATGCACCATTCAGATTGAATAAGAAAGACAGAAAAACTGTGAAAATGATGTATCAGAAGAAAAAATTTGCATATGGCTACATCGAGGACCTTAAGTGCCGTGTGCTGGAACTGCCTTACCAAGGCGAGGAGCTCAGCATGGTCATCCTGCTGCCGGATGACATTGAGGACGAGTCCACGGGCCTGAAGAAGATTGAGGAACAGTTGACTTTGGAAAAGTTGCATGAGTGGACTAAACCTGAGAATCTCGATTTCATTGAAGTTAATGTCAGCTTGCCCAGGTTCAAACTGGAAGAGAGTTACACTCTCAACTCCGACCTCGCCCGCCTAGGTGTGCAGGATCTCTTTAACAGTAGCAAGGCTGATCTGTCTGGCATGTCAGGAGCCAGAGATATTTTTATATCAAAAATTGTCCACAAGTCATTTGTGGAAGTGAATGAAGAGGGAACAGAGGCGGCAGCTGCCACAGCAGGCATCGCAACTTTCTGCATGTTGATGCCCGAAGAAAATTTCACTGCCGACCATCCATTCCTTTTCTTTATTCGGCATAATTCCTCAGGTAGCATCCTATTCTTGGGGAGATTTTCTTCCCCTTAGAAGAAAGAGACTGTAGCAATACAAAAATCAAGCTTAGTGCTTTATTACCTGAGTTTTTAATAGAGCCAATATGTCTTATATCTTTACCAATAAAACCACTGTCCAGAAAAAAAAAAAAAAAAAAAA
B4: SEQ_ID_#1002 (nucleic acid, listed as Homo sapiens)
DNA: CCACCGCCTATCCCAAAACCTATAAGAACCAATGATAATCCCACTACCCTTTGATGACTCTCTTTTTGGACTCAGCCCGCCTGCACCCAGGTGAAATAAACAGCCTCGTTGCTCACACAAAGCCTGTTTGGTGGTCTCTTCACACGGACGCATGAGACATTTGGTGCCGAAGACCCGGGTCAGCGGGACTCCTTCGGGACAGCAGTCCCCTGTCCTCACCTTCACTCCCTGAAGAGATCCACCTACAACCTCAGGTCCGCAGACCAACCAGCCCAAGGAACATCTCACTGATTTTAAATTGGACTCTCTTCACACGGGCGAGTGTGACATTTGGTGCCGAAGACCCAGGACAGGAGGACTCCTTTGGGAGACCGGTCTCCTGTCCTCGCCCTCACTCCGTGAGGAGATCCACCTGCAACCTCAGGTCCTCAGACCAACCAGCCGAAGGAACATCTCACCAATTTCAAATGGGCTTAGCGGCTGAAGACTGATGCTGCCTGGTCGCCTCGGAAGCCCCCTGGACCATCATGGACGCCGAGCTTCGGGTAACTCTCACAGTGGAGGCCTGTTTGGTGACTTTCTTCGCACCGACGTGCGTGACACAATGTTTGCAGAATATGAAGGTGGCTGTCACGTGGTCTGGGCTTCCTGGAGGTTTGAGCTGGGAGCTGAAGCCCCGTAGGAGTTCTGTAAGTCAAAAGGGAAGAGAAGAGCATTCCACGTAGAGAAAAGAATCTGTGCTCCAGGCGCGGTGGCTCACGATTGTAATCTCAGCACTTGGTGTCAGGCCTCTGAGCCCAGGCTAAGCCATTGTATATCCCCCGTGACCTGCATGTATACATCCAGATGGCCTGAAGCAGCTGAAGAACCACAAGAGAAGTGAAAATAGCCAGTTCCTGCCTTAACTGATGTCATTCCACCATTGTGATTTGTTCCTGTCCCACCTTTACTGATCAATTAACTTTGTGACATTTCTTCTCCTGGACAATGAGTCTCATGATCTCCCTACCCAGCACCTTGTGACCCCTGCCCCTGCCCGCAAGAGATAACCATCTTTAACTGTAACTTTCCACTACCTACCTAAATCCTGTAAAAACTGACCCACCCCCTATCTCCCTTTGCTGACTCCTTTTTCGGACTCAGCCCGCCTGCACCCAGGTGATTAAAAAGCTTTATTGTTCACATG
B5: SEQ_ID_#1005 (nucleic acid, listed as Homo sapiens)
DNA: ATAGATTCTGCAGCATGGCAAACAGGTAATACTTAAAGCCAAATGGCGCTTCGGCTTATTTCAATACTATTTTTATGTAAAGATCAGTGTGAGAATATCAGCTCAATGGTTGAGGTTCTAGGATCAATTGCCTTGCAGTTTTTATACTAGCTTTTGATATCTTTTGCCTATTAAAACACTTTGTGAACTTTAGAATTAAGGAACTAAAAAATATTTACCATAAGTCCAAGTTATGACTTGAGGATCATATCTGATTAGAACTGTGGCAGAACTACTAGAAAAAGATTCTGCAAATTGGTTTCAGTGATTCTTGTTGATGTAATCAACAAGATTACATAATCAACAATAATAGATATTGAACCAAAATGATCCTTTTTTTAAGTTTAAGGTTATTTAGTTTCTCTTGCAAGGATATGATTTAGTCCTAATAGGGAATATGTGTATGTACTGGTGGGGAGCAGTGGGCTTGCTGCATGTATGTATGTTTTAAAATTAATAAATATTATCTTACTGGGCTCCATAGATGGTTTAAATTTAGATTTATTTAATTAAGAGGCTATAAATAATATATACACTACTGTATGGTATTTAACAAATAAGTTTTAAATCTGTTAATTCTTCTGGAAAACTTTGGATGTAGGGATGGCAAGCTAATTTTCTTGTATAGCTGGTGATATAAGCAGCATGGTCATAAAATAACATTTCTTATAAAGAC
B6: SEQ_ID_#1069 (nucleic acid, listed as Homo sapiens)
DNA: GCCGCCTCCTCCTGGGCTGGGCCCGCGGTGTCTCGTCCCCTCGCGGAGCCGCTCCTGCCGCCGCCGCCGCCGCCTCCTCATTCATCCTCGTGCACCATAGGCGGCACAGGCACCAAGATGTCCAACCGAGTGGTCTGCCGAGAAGCCAGTCACGCCGGGAGCTGGTACACAGCCTCAGGACCGCAGCTGAATGCACAGCTAGAAGGTTGGCTTTCACAAGTACAGTCTACAAAAAGACCTGCTAGAGCCATTATTGCCCCCCATGCAGGATATACGTACTGTGGGTCTTGTGCTGCCCATGCTTATAAACAAGTGGATCCGTCTATTACCCGGAGAATTTTCATCCTTGGGCCTTCTCATCATGTGCCCCTCTCTCGATGTGCACTTTCCAGTGTGGATATATATAGGACACCTCTGTATGACCTTCGTATTGACCAAAAGATTTACGGAGAACTGTGGAAGACAGGAATGTTTGAACGCATGTCTCTGCAGACAGATGAAGATGAACACAGTATTGAAATGCATTTGCCTTATACAGCTAAAGCCATGGAAAGCCATAAGGATGAGTTTACCATTATTCCTGTACTGGTTGGAGCTCTGAGTGAGTCAAAAGAACAGGAATTCGGAAAACTCTTCAGTAAATATCTAGCGGATCCTAGTAATCTCTTTGTGGTTTCTTCTGATTTCTGCCATTGGGGTCAAAGGTTCCGTTACAGTTACTATGATGAATCCCAGGGGGAGATTTATAGATCCATTGAACATCTAGATAAAATGGGTATGAGTATTATAGAACAATTAGACCCTGTATCTTTTAGCAATTACTTGAAGAAATACCATAATACTATATGTGGAAGACATCCCATTGGGGTGTTATTAAATGCTATCACAGAGCTCCAGAAGAATGGAATGAATATGAGTTTTTCGTTTTTGAATTATGCCCAGTCGAGCCAGTGTAGAAACTGGCAAGACAGTTCAGTGAGTTATGCAGCTGGAGCACTCACGGTCCACTGAAGCTCTGAATCCTCAGGGATGCCACCTGCACATTCTCATACTCTGTCCGGGGTCCCAGCCTAGCCTTTACCACGATACTGGTCCTGGTTTGGGGGGATTCTGAAACCTCAAACTAATAGAACTTTCTTCTCTTTTTTTCTAGTAGGTGTAGTCCTTCCTTAATTTCAACTCATTAAAAAATGCTTTATAGTTTAGGGCAGTGGAAGGAAGGCTGGCATCAAAATATTTTGATCAAAAAAGATGACAATGTAAAGGCTCAGTTGTGGCAGACAGTTTTTT

tested on: EE transcriptome; assay: Genome-wide microarray transcript profiling of esophageal biopsies, EE patients vs normal individuals (EE transcriptome); conditions: transcript level in esophageal biopsies of EE patients (n=76) compared to normal individuals (n=13); Affymetrix Human Genome U133 plus 2; p<0.01
Summary of the method: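 Distal esophageal biopsies from EE patients (n=76; >24 eosinophils/hpf, basal hyperplasia) and normal controls (n=13; 0 eosinophils/hpf) profiled on Affymetrix Human Genome U133 plus 2 chips. Expression by absolute call and average difference, global scaling; transcriptome genes defined as p<0.01 (Welch t-test) and ≥1.5-fold change.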

Row | Molecule | Fold Change
1 | B1 | 3.633

same assay, conditions: transcript level in esophageal biopsies of EE patients compared to normal individuals (NL); Affymetrix Human Genome U133 plus 2; p<0.01; >1 up-regulated, <1 down-regulated

Row | Molecule | Fold Change
2 | B2 | 0.62
3 | B3 | 0.62
4 | B4 | 0.612
5 | B5 | 0.61
6 | B6 | 0.587
